According to patent US20180222961A1 (IMMATICS BIOTECHNOLOGIES, published 2018):

target: T1, HLA-B*07:02 (human); assay: UV-exchange b2m ELISA; exchange-yield grade
T1 construct: also called peptide-receptive MHC molecules
From the text: (§1) Candidate peptides for T cell based therapies according to the present invention were further tested for their MHC binding capacity (affinity). The individual peptide-MHC complexes were produced by UV-ligand exchange, where a UV-sensitive peptide is cleaved upon UV-irradiation, and exchanged with the peptide of interest as analyzed. Only peptide candidates that can effectively bind and stabilize the peptide-receptive MHC molecules prevent dissociation of the MHC complexes. To determine the yield of the exchange reaction, an ELISA was performed based on the detection of the light chain (β2m) of stabilized MHC complexes. The assay was performed as generally described in Rodenko et al. (Rodenko et al., 2006).
(§2) 96 well MAXISorp plates (NUNC) were coated over night with 2 ug/ml streptavidin in PBS at room temperature, washed 4× and blocked for 1 h at 37° C. in 2% BSA containing blocking buffer. Refolded HLA-A*02:01/MLA-001 monomers served as standards, covering the range of 15-500 ng/ml. Peptide-MHC monomers of the UV-exchange reaction were diluted 100-fold in blocking buffer. Samples were incubated for 1 h at 37° C., washed four times, incubated with 2 ug/ml HRP conjugated anti-β2m for 1 h at 37° C., washed again and detected with TMB solution that is stopped with […]. Absorption was measured at 450 nm. Candidate peptides that show a high exchange yield (preferably higher than 50%, most preferred higher than 75%) are generally preferred for a generation and production of antibodies or fragments thereof, and/or T cell receptors or fragments thereof, as they show sufficient avidity to the MHC molecules and prevent dissociation of the MHC complexes.

First: SPAPLKLSRTPA
Second: APSTPRITTF
The peptide exchange yield of the first is lower: 20 to 50% for the first, 50 to 75% for the second.

APLKLSRTPA and SPGAQRTFFQL fall in the same range of peptide exchange yield: 50 to 75% for the first, 50 to 75% for the second.

NPDLRRNVL and KPIESTLVA fall in the same range of peptide exchange yield: 50 to 75% for the first, 50 to 75% for the second.

target: T2, HLA-A*03:01 (human); assay: UV-exchange b2m ELISA; exchange-yield grade
T2 construct: also called peptide-receptive MHC molecules
From the text: as §1, §2

SVSGVKTTF and QIHDHVNPK fall in the same range of peptide exchange yield: 20 to 50% for the first, 20 to 50% for the second.

RLQEWKALK and RLFTSPIMTK fall in the same range of peptide exchange yield: 50 to 75% for the first, 50 to 75% for the second.

First: RLFSWLVNR
Second: RQPERTILRPR
The peptide exchange yield of the first is higher: 50 to 75% for the first, 20 to 50% for the second.

VLLGSLFSRK and SSSSATISK fall in the same range of peptide exchange yield: 20 to 50% for the first, 20 to 50% for the second.

First: NLSSITHER
Second: GMMKGGIRK
The peptide exchange yield of the first is lower: 20 to 50% for the first, 50 to 75% for the second.

Compared with VTADHSHVF, SAAPPSYFR is higher in peptide exchange yield: 10 to 20% for the first, 20 to 50% for the second.

SVSSETTKIKR and SVLTSSLVK fall in the same range of peptide exchange yield: 20 to 50% for the first, 20 to 50% for the second.

RSRLNPLVQR and TVAPPQGVVK fall in the same range of peptide exchange yield: 20 to 50% for the first, 20 to 50% for the second.

Compared with STTFPTLTK, KVAGERYVYK is higher in peptide exchange yield: 20 to 50% for the first, 50 to 75% for the second.

Compared with RLKGDAWVYK, RVFTSSIKTK is lower in peptide exchange yield: 50 to 75% for the first, 20 to 50% for the second.

TTALKTTSR and RAKELEATF fall in the same range of peptide exchange yield: 10 to 20% for the first, 10 to 20% for the second.

Compared with RRIHTGEKPYK, VLYGPAGLGK is higher in peptide exchange yield: 20 to 50% for the first, 50 to 75% for the second.

RVAELLLLH and RISEYLLEK fall in the same range of peptide exchange yield: 20 to 50% for the first, 20 to 50% for the second.

VLADSVTTK and GTSPPSVEK fall in the same range of peptide exchange yield: 20 to 50% for the first, 20 to 50% for the second.

QSMYYPLQLK and KTFTIKRFLAK fall in the same range of peptide exchange yield: 20 to 50% for the first, 20 to 50% for the second.

KILEEHTNK and VTDLISPRK fall in the same range of peptide exchange yield: 20 to 50% for the first, 20 to 50% for the second.

SLKERNPLK and GTVNPTVGK fall in the same range of peptide exchange yield: 20 to 50% for the first, 20 to 50% for the second.

First: RTEEVLLTFK
Second: VSKTTGMEF
The peptide exchange yield of the first is higher: 20 to 50% for the first, 10 to 20% for the second.

First: KTLELRVAY
Second: AVRKPIVLK
The peptide exchange yield of the first is lower: 20 to 50% for the first, 50 to 75% for the second.

First: VVHAVFALK
Second: KTFPASTVF
The peptide exchange yield of the first is higher: 50 to 75% for the first, 10 to 20% for the second.

Compared with IVQEPTEEK, SMYYPLQLK is higher in peptide exchange yield: 20 to 50% for the first, 50 to 75% for the second.

First: AAFVPLLLK
Second: ATFERVLLR
The peptide exchange yield of the first is lower: 20 to 50% for the first, 50 to 75% for the second.

First: AVFNPRFYRTY
Second: GTYAHTVNR
The peptide exchange yield of the first is lower: 20 to 50% for the first, 50 to 75% for the second.

GAYAHTVNR and RVNAIPFTY fall in the same range of peptide exchange yield: 50 to 75% for the first, 50 to 75% for the second.

KSLIKSWKK and HTFGLFYQR fall in the same range of peptide exchange yield: 20 to 50% for the first, 20 to 50% for the second.

First: KLQPAQTAAK
Second: RMFADDLHNLNK
The peptide exchange yield of the first is lower: 20 to 50% for the first, 50 to 75% for the second.

First: ISYSGQFLVK
Second: AVAPPTPASK
The peptide exchange yield of the first is higher: 50 to 75% for the first, 20 to 50% for the second.

Compared with KTYETNLEIKK, RSLRYYYEK is lower in peptide exchange yield: 50 to 75% for the first, 20 to 50% for the second.

First: GTNTVILEY
Second: AIKVIPTVFK
The peptide exchange yield of the first is higher: 50 to 75% for the first, 20 to 50% for the second.

ALEVAHRLK and VVLLGSLFSRK fall in the same range of peptide exchange yield: 20 to 50% for the first, 20 to 50% for the second.

RMASPVNVK was tested, and the peptide exchange yield was > 75%.
